Data from patent US20230038638A1, “COMPLEMENT FACTOR I-RELATED COMPOSITIONS AND METHODS” (published 2023).
Substitutions are numbered along the chain they refer to.

Assays:
human C4b (human) [1] = biological target: T1, human C4b (human) (UniProt P0C0L5)
T1 sequence: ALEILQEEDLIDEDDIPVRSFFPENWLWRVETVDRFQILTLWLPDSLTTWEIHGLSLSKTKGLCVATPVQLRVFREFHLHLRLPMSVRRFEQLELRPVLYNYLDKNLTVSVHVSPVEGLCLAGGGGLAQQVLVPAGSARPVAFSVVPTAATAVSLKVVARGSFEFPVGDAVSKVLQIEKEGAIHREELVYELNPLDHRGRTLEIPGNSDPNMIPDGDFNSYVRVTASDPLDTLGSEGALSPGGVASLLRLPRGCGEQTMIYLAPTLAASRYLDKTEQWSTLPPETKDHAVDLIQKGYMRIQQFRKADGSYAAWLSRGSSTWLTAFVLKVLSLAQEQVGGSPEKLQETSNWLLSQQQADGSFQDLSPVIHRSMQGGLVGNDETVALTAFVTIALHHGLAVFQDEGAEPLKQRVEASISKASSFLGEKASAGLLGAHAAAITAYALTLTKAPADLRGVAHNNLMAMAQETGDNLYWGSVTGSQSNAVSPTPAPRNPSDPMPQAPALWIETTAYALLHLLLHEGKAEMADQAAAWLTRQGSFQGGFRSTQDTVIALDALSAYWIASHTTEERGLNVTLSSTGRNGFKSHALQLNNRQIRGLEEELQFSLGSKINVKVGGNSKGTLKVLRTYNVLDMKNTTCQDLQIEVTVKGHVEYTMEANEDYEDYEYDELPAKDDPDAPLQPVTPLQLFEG

[2] = biological target: soluble human C3b (human) (UniProt P01024)
human C4b (human) [3] = biological target: T2, human C4b (human) (UniProt P0C0L4)
T2 sequence: T1 sequence with T151A, G317D, L364P, S365C, I368L, H369D, S420N, A451V, R454L, A530S

[4] = biological target: soluble human C3b (human) (UniProt P01024); remark: listed apart in the source
human C4b (human) [5] = biological target: T2, human C4b (human); remark: listed apart in the source
human C4b (human) [6] = biological target: T1, human C4b (human); remark: listed apart in the source

Row | C4c EC50 (human C4b (human) [1]) | iC3b Screen Ref Fold (fold of CFI-HSA wild type) [2] | C4b Screen Ref Fold (fold of CFI-HSA wild type) (human C4b (human) [3]) | iC3b EC50 [4] | C4c EC50 (nM) (human C4b (human) [5]) | iC3b Screen Ref Fold (fold relative to CFI-HSA wild type) [2] | C4b Screen Ref Fold (fold relative to CFI-HSA wild type) (human C4b (human) [6]) | iC3b Screen Ref Fold (fold of reference) [2] | C4b Screen Ref Fold (fold of reference) (human C4b (human) [3]) | C4c EC50 (human C4b (human) [5]) | C4b Screen Ref Fold (fold of CFI-HSA wild type) (human C4b (human) [6]) | Substance
1 | 8.2 nM | 1.77 | 3.96 |  |  |  |  |  |  |  |  | CFI-HSA variant K504R; E530F; P558G; E457G; E461Q; N531G (enzyme)
2 | 9.1 nM |  |  | 4.8 nM |  |  |  |  |  |  |  | CFI-HSA variant E530F; P558S; E457G; E461Q; N531G (enzyme)
3 |  | 2.07 | 4.26 | 2.5 nM | 6 nM | 0.09 | 3.28 |  |  |  |  | CFI-HSA variant D425K; E457G; E461Q; N531G (enzyme)
4 |  |  |  | 10.5 nM | 182 nM |  |  | 1.42 | 4.6 |  |  | CFI-HSA variant E457R (enzyme)
5 |  |  |  | 57.2 nM | > 1000 nM |  |  | 0.26 | 0.19 |  |  | CFI-HSA variant D341A (enzyme)
6 |  |  |  | 116 nM | > 1000 nM |  |  | 0.13 | 0.88 |  |  | CFI-HSA variant G406E (enzyme)
7 |  | 0.59 | 0.63 | 20.8 nM | 168 nM |  |  |  |  |  |  | CFI-HSA variant E416A; K504H (enzyme)
8 |  |  |  | 54.4 nM |  |  |  | 0.4 | 0.97 | > 1000 nM |  | CFI-HSA variant G406I (enzyme)
9 |  |  |  | 9.8 nM | 100 nM |  |  | 1.44 | 3.83 |  |  | CFI-HSA variant E461I (enzyme)
10 |  |  |  | 21.3 nM | 428 nM |  |  | 1.07 | 0.81 |  |  | CFI-HSA variant E457S (enzyme)
11 |  |  |  | 35.2 nM |  |  |  | 0.59 | 0.94 | > 1000 nM |  | CFI-HSA variant G406N (enzyme)
12 |  | 1.89 | 4.21 | 4.3 nM | 7.2 nM |  |  |  |  |  |  | CFI-HSA variant P558S; E457G; E461Q; N531G (enzyme)
13 | 4.8 nM | 1.58 | 4.14 |  |  |  |  |  |  |  |  | CFI-HSA variant K504R; D425R; P558G; E457G; E461Q; N531G (enzyme)
14 |  |  |  | 16.3 nM | 215 nM |  |  | 0.9 | 4.31 |  |  | CFI-HSA variant E457N (enzyme)
15 |  | 1.06 | 3.44 | 6.6 nM | 6.3 nM |  |  |  |  |  |  | CFI-HSA variant T377G; Y408L; E457G; E461Q; R462K; N531G (enzyme)
16 |  |  |  | 31.9 nM |  |  |  | 0.82 | 0.92 | 386 nM |  | CFI-HSA variant G406L (enzyme)
17 |  |  |  | 21.2 nM | 99.8 nM |  |  | 0 | 2.48 |  |  | CFI-HSA variant N531M (enzyme)
18 |  | 3.07 | 0.08 | 5.2 nM | > 1000 nM |  |  |  |  |  |  | CFI-HSA variant K504R; E530F; D425K; P558G (enzyme)
19 |  |  |  | 47.8 nM | 338 nM |  |  | 0.41 | 3.55 |  |  | CFI-HSA variant Y403F (enzyme)
20 |  |  |  | 37.2 nM |  |  |  | 0.73 | 0.72 | > 1000 nM |  | CFI-HSA variant G406F (enzyme)
21 | 124 nM | 0.41 | 2.93 |  |  |  |  |  |  |  |  | CFI-HSA variant R557K; N531M (enzyme)

Row | C4c EC50 (human C4b (human) [1]) | iC3b Screen Ref Fold (fold of CFI-HSA wild type) [2] | C4b Screen Ref Fold (fold of CFI-HSA wild type) (human C4b (human) [3]) | iC3b EC50 [4] | C4c EC50 (nM) (human C4b (human) [5]) | iC3b Screen Ref Fold (fold relative to CFI-HSA wild type) [2] | C4b Screen Ref Fold (fold relative to CFI-HSA wild type) (human C4b (human) [6]) | iC3b Screen Ref Fold (fold of reference) [2] | C4b Screen Ref Fold (fold of reference) (human C4b (human) [3]) | C4c EC50 (human C4b (human) [5]) | C4b Screen Ref Fold (fold of CFI-HSA wild type) (human C4b (human) [6]) | Substance
22 |  | 0.73 |  | 24.6 nM | 855 nM |  |  | 1.4 | 1.03 |  | 0.65 | CFI-HSA variant Y563H (enzyme)
23 |  | 1.69 | 4.01 | 4.2 nM | 26.1 nM |  |  |  |  |  |  | CFI-HSA variant E416A; E457G; E461Q; N531G (enzyme)
24 |  |  |  | 40.6 nM | 567 nM |  |  | 0.8 | 0.99 |  |  | CFI-HSA variant E457V (enzyme)
25 |  | 1.8 | 3.91 | 4.6 nM | 16.2 nM |  |  |  |  |  |  | CFI-HSA variant K504R; E530F; E457G; E461Q; N531G (enzyme)
26 |  |  |  | 104 nM | > 1000 nM |  |  | 0.21 | 0.07 |  |  | CFI-HSA variant K504V (enzyme)
27 |  | 1.9 | 4.25 | 2.2 nM | 4 nM |  |  |  |  |  |  | CFI-HSA variant D425R; E457G; E461Q; N531G (enzyme)
28 |  |  |  | 14.7 nM |  |  |  | 0.8 | 0.76 | > 1000 nM |  | CFI-HSA variant E530R (enzyme)
29 |  | 2.05 | 4.5 | 4.2 nM | 3.5 nM |  |  |  |  |  |  | CFI-HSA variant T377G; E457G; E461Q; R462K; F464Y; N531G (enzyme)
30 |  |  |  | 16.4 nM | 147 nM |  |  | 1.01 | 6.1 |  |  | CFI-HSA variant T377G (enzyme)
31 |  | 2.98 | 4.18 | 3 nM | 8.2 nM |  |  |  |  |  |  | CFI-HSA variant K504R; E457G; E461Q; N531G (enzyme)
32 |  |  |  | 42.6 nM | 176 nM |  |  | 0.36 | 1.96 |  |  | CFI-HSA variant G406A (enzyme)
33 |  |  |  | 20.4 nM |  |  |  | 0.6 | 1.17 | 197 nM |  | CFI-HSA variant G406H (enzyme)
34 |  | 2.97 | 0.02 | 6.2 nM | > 1000 nM |  |  |  |  |  |  | CFI-HSA variant K504R; E530F; D425R; P558G (enzyme)
35 |  |  |  | 30.7 nM |  |  |  | 0.68 | 0.91 | > 1000 nM |  | CFI-HSA variant G406Q (enzyme)
36 |  |  |  | 28.5 nM |  |  |  | 0.19 | 0.84 | 865 nM |  | CFI-HSA variant K418G; D425G (enzyme)
37 |  |  |  | 60.5 nM | 920 nM |  |  | 0.56 | 0.19 |  |  | CFI-HSA variant R456N (enzyme)
38 | 7.4 nM | 1.18 | 4.2 |  |  |  |  |  |  |  |  | CFI-HSA variant K504R; D425R; E530F; E457G; E461Q; N531G (enzyme)
39 |  |  |  | 49.1 nM | 530 nM |  |  | 0.84 | 0.05 |  |  | CFI-HSA variant Y408Q (enzyme)
40 |  |  |  | 14.9 nM |  |  |  | 0.39 | 0.43 | > 1000 nM |  | CFI-HSA variant G406Y (enzyme)
41 | 5 nM | 0.87 | 4.13 |  |  |  |  |  |  |  |  | CFI-HSA variant D425R; E530F; P558G; E457G; E461Q; N531G (enzyme)
